Measurements: the supplement of paper PMC9170038

System: MS2 coat protein
Test: apparent KD of MS2 coat protein; designed switch direction (-1 OFF switch, 1 ON switch): 1; higher = weaker reporter binding
Method in brief: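 Each step of the titration lasted 0.8–1.5 h at the lowest concentration and 10–20 min at the highest. The protein, SNAP-549-labelled MS2 coat protein, went from 0.7 or 1.5 nM doubling to 3 µM over RNA switches transcribed on Illumina chips by stalled E. coli RNA polymerase. Normalised cluster fluorescence was curve-fitted, and the per-design median over clusters is given as apparent KD.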

[1] = input ligand: microRNA oligo, concentration not stated
[2] = Eterna round: R95, input ligand: FMN 200 uM
[3] = Eterna round: R95, input ligand: microRNA oligo, concentration not stated
[4] = Eterna round: R95, input ligand: none

Sequence	apparent KD of MS2 coat protein (input ligand: FMN 200 uM) [nM]	apparent KD of MS2 coat protein [1] [nM]	apparent KD of MS2 coat protein (input ligand: none) [nM]	apparent KD of MS2 coat protein [2] [nM]	apparent KD of MS2 coat protein [3] [nM]	apparent KD of MS2 coat protein [4] [nM]
GGAUGAUUAACAGGAUAUCAUUUGUAAAUUCGAUGAGAAGGGUUGAUUACUUACACGACGUGUUACAUGAGGAUCACCCAUGUU [SameState NG1 #6] (Eterna round: R96, puzzle: Same State NG 1)	372	385	548			
GGCAUGCGGCGUACCGUAUGCUGGUAUGUACAUGAGGAUCACCCAUGUCAUGUACAGGCUUUUUGCUCGUCUUAUUG [JL-shm-2.40 JL mod] (puzzle: Sensor for hsa-mir-208a)				128	28.7	157
GGCCUGUAGACAGGAUAUGGGAAAGGAAGUGUACCAGAAGGGUCAAAGAUAUAGGUGGACAUGAGGAUCACCCAUGUAAUUAAC [PowerStrip SSNG 1.21] (Eterna round: R96, puzzle: Same State NG 1)	56.6	70.5	105			
GGCCUGUGUCAAGGAUAUGCUACCGUUUCGGUAGCAGAAGGUGAUCACAUGAGGAUCACCCAUGUUUACGCGAACACGCGCGCC (Eterna round: R96, puzzle: Same State NG 1)	193	70.6	79.6			
GGCUAUCGCGUUCGAUAGCUUAAGCAUGUACAUGAGGAUCACCCAUGUCAUGUACAAGCUUUUUGCUCGUAUCUUAU (puzzle: Sensor for hsa-mir-208a)				94.6	12.1	119
GGCUAUCGGCGUACCGAUAGCUGGUAUGUACAUGAGGAUCACCCAUGUCAUGUACAGGCUUGUUGCUCGUCUUAUUG [JL-shm-2.38 JL mod] (puzzle: Sensor for hsa-mir-208a)				144	33	165
GGGAGAGCCGCAGGAUAUGGUGAGGAUUACCCACUAGAAGGGUGGACAUGAGAAUCGAACAUGAGGAUCACCCAUGUUCUGAGG (Eterna round: R96, puzzle: Same State NG 1)	200	219	386			
GGGAGAGGCGCAGGAUAUGGUGAGGAUCACCCACUAGAAGGGUGCACAUGAGAAUCGGACAUGAGGAUCACCCAUGUUUGGCGC (Eterna round: R96, puzzle: Same State NG 1)	393	121	565			
GGGAGAGGCGCAGGAUAUGGUGAGGAUUACCCACUAGAAGGGUGCACAUGAGAAUCGAACAUGAGGAUCACCCAUGUUCUGAGC (Eterna round: R96, puzzle: Same State NG 1)	189	187	230			
GGUAGGUUACUACCAAACAUGAGGAUCACCCAUGUAAAUGGGAAGGAUAUGGUACCUAUUUGGUACCAGAAGGUCUAAUUAAUU [JL Fiskers NG3ss - 2 mod 1] (Eterna round: R96, puzzle: Same State NG 3)	332	479	553			
GGUAGGUUACUACCAAACAUGAGGAUCACCCAUGUAAGUGGGAAGGAUAUGGUACCUUUUAGGUACCAGAAGGUCCAUAAAAUU [JL Fiskers NG3ss - 2 mod 7] (Eterna round: R96, puzzle: Same State NG 3)	314	355	2090			
GGUAGGUUACUACCAAACAUGAGGAUCACCCAUGUAAGUGGGAAGGAUAUGGUACCUUUUAGGUACCAGAAGGUCCAUAUAGUA [JL Fiskers NG3ss - 2 mod 10] (Eterna round: R96, puzzle: Same State NG 3)	254	783	1000			
GGUAUUAACACAGGAUAUGCUUACGAAACGUAAGCAGAAGGGUGAACAUGAGGAUCACCCAUGUUUGUACCAGGGCGUGAGCCC [JL SSNG1 1.72] (Eterna round: R96, puzzle: Same State NG 1)	349	632	923			
GGUCCAGCCUGAGCUGGACAAAAGCAUGUACAUGAGGAUCACCCAUGUUCAUGUACAAGCUUUUUGCUCGUCUUACC [salish99_208a_r3_090x] (puzzle: Sensor for hsa-mir-208a)				570	15.9	823
GGUCCAGCCUGAGCUGGACAAAAGCAUGUACAUGAGGAUCACCCAUGUUCAUGUACAAGCUUUUUGCUCGUCUUACG [salish99_208a_r3_086] (puzzle: Sensor for hsa-mir-208a)				571	19.2	844
GGUCCAGCCUGAGCUGGACAAAAGCAUGUACAUGAGGAUCACCCAUGUUCAUGUACAAGCUUUUUGCUCGUCUUAGC [salish99_208a_r3_071] (puzzle: Sensor for hsa-mir-208a)				534	12.7	468
GGUCGGACAUGAGGAUCACCCAUGUGGUGAGCGGAAACGCCAUAGGAUAUCUGUCCGAAAAGGUCAGAGAAGGGUGAACCGACC [Fiskers NG3ss - 68] (Eterna round: R96, puzzle: Same State NG 3)	184	311	135			
GGUCGGACUCACAUGAGGAUCACCCAUGUUCCGGAAACGGGAUAGGAUAUCUGUCCGAAAAGGUCAGAGAAGGGUCUACCGACC [Fiskers NG3ss - 55] (Eterna round: R96, puzzle: Same State NG 3)	1050	236	519			
GGUGCCAAAUAAGCCUACAUGAGGAUCACCCAUGUAUGUAGGCAGGAUAUCGUAUGCAAAGCAUACGAGAAGGGCCUAGGCACC [Mat - Same State NG 3 - JL Mod - D63] (Eterna round: R96, puzzle: Same State NG 3)	18.8	23.7	41.3			
GGUGCCAAUAAAGCCUACAUGAGGAUCACCCAUGUAUGUAGGUAGGAUAUCGUUUGCUUUGCAAACGAGAAGGGCCUAGGCACC [JL SSNG3 1.20] (Eterna round: R96, puzzle: Same State NG 3)	22.5	40.2	48.3			
GGUGCGAAUAAAGCCUACAUGAGGAUCACCCAUGUAUGUAGGCAGGAUAUCGUUUGCUUUGCAAACGAGAAGGGCUGUCGCACC [JL SSNG3 1.16] (Eterna round: R96, puzzle: Same State NG 3)	21.9	49	70.7			
GGUGGGUUACUACCAACACAUGAGGAUCACCCAUGUUUUGGGAAGGAUAUGGUACCUAUUUGGUACCAGAAGGUCCGGUUGGUG [salish99_SSNG3_r04_704] (Eterna round: R96, puzzle: Same State NG 3)	47.8	100	100			
GGUGGGUUACUACCCACACAUGAGGAUCACCCAUGUAUUGGGAAGGAUAUGGUGCCUGUGUGGUACCAGAAGGUCGUGAAGGUG [SS-NG3-LRO19] (Eterna round: R96, puzzle: Same State NG 3)	580	312	3470			
GGUGGGUUGCUACCAACACAUGAGGAUCACCCAUGUUUUGGGAAGGAUAUGGUACCUAUUUGGUACCAGAAGGUCCCGUUGGUG [salish99_SSNG3_r04_706] (Eterna round: R96, puzzle: Same State NG 3)	37.6	40.4	63.6			
GGUGGGUUGCUGCCGGCACAUGAGGAUCACCCAUGUUUUGGGAAGGAUAUGGUACCUGUUUGGUGCCAGAAGGUCCCGUUGGUG [salish99_SSNG3_r04_711] (Eterna round: R96, puzzle: Same State NG 3)	864	526	522			
GUAAAACAUGAGGAUCACCCAUGUAAUAAUAUGGGAGGAUAUCAGAUUUAAUUUAAUUUAUGAGAAGGCCUAAAUU [Mat - Same State 1 - Mod of Eli - D62] (puzzle: Same State 1)				43.4	488	596
GUAAAACAUGAGGAUCACCCAUGUAAUAAUAUGGGAGGAUAUCUGAUUUAAUUUAAUUUAAGAGAAGGCCUAAAUG [Mat - Same State 1 - Mod of Eli - D58] (puzzle: Same State 1)				39.9	318	608
GUAAAACAUGAGGAUCACCCAUGUCAUCUAAGUCGAGGAUAUGGGAAUUAAUUAAUUAAACCAGAAGGCGAAAUUG [Mat - Same State 1 - D97] (puzzle: Same State 1)				44.6	844	606
GUAAUACAUGAGGAUCACCCAUGUCAAUGUAGUCGAGGAUAUGGGUAGCUAUGAGGCUUACUAGAAGGCGACGAGC [Same State 1 - Mod of Vinnie Teenbexe v.5] (Eterna round: R96, puzzle: Same State 1)	46.5	208	249			
GUAAUACAUGAGGAUCACCCAUGUCAAUGUAGUCGAGGAUAUGGGUAGCUAUGAGGCUUACUAGAAGGCGACGAGC [Same State 1 - Mod of Vinnie Teenbexe v.5] (puzzle: Same State 1)				28	176	359
